# Measurements published in patent publication US20140213523A1 (TIVORSAN PHARMACEUTICALS, published 2014).
# Target: the molecule itself
# Experiment: Analytical ultracentrifugation (sedimentation velocity) at three concentrations, 20 mM Tris pH 8, 0.5 M NaCl, 20 °C; self-association of T2-rhBGN (M form to D form)
# Description: FIG. 1. Analytical ultracentrifugation of HIC pool purified from CHO clone 57.
# T2-rhBGN was purified from conditioned media of CHO clone 57 and 171 and HEK 293 clone 2 by a combination of anion exchange and hydrophobic interaction (HIC). Analytical ultracentrifugation (AUC) of HIC pool purified from CHO Clone 57 resolved into two sedimentation peaks: M with a sedimentation coefficient: s_{20,w}≈2.88 and D with coefficient s_{20,w}≈4.28 (FIG. 1). […] Experiments were performed at 20° C., in a Beckman Optima XL-I analytical ultracentrifuge. Spin Analytical charcoal upon 12 mm double-sector centerpieces were used in an eight-hole AN 50 Ti rotor at 45,000 rpm. Radial absorption scans were measured at λ=280 nm. Sedfit 12.44 was used for data analysis, with a 68% confidence limit (analyticalultracentrifugation.com). Sedimentation coefficients were corrected to standard s_{20,w} conditions using the experimental buffer density and buffer viscosity as calculated with […] (sednterp.unh.edu). Buffer: 20 mM Tris, pH 8, 0.5M NaCl; viscosity=0.01002 Poise; density=1.004989 g/mL. Partial specific volume, v-bar=0.74413 mL/g calculated from amino acid composition with Sednterp.
protein,measurement,value
"T2-rhBGN (T2 recombinant human biglycan) (other, N-linked glycans (M and D forms differ in N-glycan profile); no GAG side chains, Purified from conditioned medium of CHO clone 57 by anion exchange and HIC; The pool is a mixture of the M form (generally monomeric) and the D form (generally dimeric); No tags are stated; also called HIC pool; M-rhBGN) DEEAAGADTAGVLDPDSVTPTYSAMCPFGCHCHLRVVQCSDLGLKSVPKEISPDTTLLDLQNNDISELRKDDFKGLQHLYALVLVNNKISKIHEKAFSPLRKLQKLYISKNHLVEIPPNLPSSLVELRIHDNRIRKVPKGVFSGLRNMNCIEMGGNPLENSGFEPGAFDGLKLNYLRISEAKLTGIPKDLPETLNELHLDHNKIQAIELEDLLRYSKLYRLGLGHNQIRMIENGSLSFLPTLRELHLDNNKLARVPSGLPDLKLLQVVYLHSNNITKVGVNDFCPMGFGVKRAYYNGISLFNNPVPYWEVQPATFRCVTDRLAIQFGNYKK",Kd,~50 µM
